Target: M6P receptor (M6PR) (human)
Assay: cell-based or functional assay

intracellular α-gal A activity of Fabry patient fibroblasts after 18 hours incubation with 10 µg/ml enzyme (fold of untreated cells): 116 fold
B1: Agalsidase alfa (Shire, Replagal) (enzyme, UniProt P06280 32-429, looked up)
chain: LDNGLARTPTMGWLHWERFMCNLDCQEEPDSCISEKLFMEMAELMVSEGWKDAGYEYLCIDDCWMAPQRDSEGRLQADPQRFPHGIRQLANYVHSKGLKLGIYADVGNKTCAGFPGSFGYYDIDAQTFADWGVDLLKFDGCYCDSLENLADGYKHMSLALNRTGRSIVYSCEWPLYMWPFQKPNYTEIRQYCNHWRNFADIDDSWKSIKSILDWTSFNQERIVDVAGPGGWNDPDMLVIGNFGLSWNQQVTQMALWAIMAAPLFMSNDLRHISPQAKALLQDKDVIAINQDPLGKQGYQLRQGDNFEVWERPLSGLAWAVAMINRQEIGGPRSYTIAVASLGKGVACNPACFITQLLPVKRKLGFYEWTSRLRSHINPTGTVLLQLENTMQMSLKDLL
modifications: heterogeneous N-glycans, about 24% phosphorylated (M6P) glycans
